We go through 1 substance from patent publication US20100316632A1.

Test [1] addresses CD40 receptor (human), on CD14+ monocytes (human) (UniProt P25942).
For test [2] the target is unchanged. This is another data set of the same source.

“clone 64 (agonist anti-human CD40 monoclonal antibody, PanGenetics, The Netherlands)” had a TNF-α production by CD14+ monocytes (ELISA of supernatant after 24 h) in test [1] of 449 pg/mL. In test [2], the IL-1β production by purified CD14+ cells of MDS patients (ELISA) was determined as 18 pg/mL, the IL-6 production by purified CD14+ cells of MDS patients (ELISA) was determined as 1210 pg/mL and the IL-10 production by purified CD14+ cells of MDS patients (ELISA) was 1650 pg/mL.
